Data published in patent US8840891 (RSR, dated 2014).

What was measured:
[1] = target: TSHR with activating mutation I568T expressed on CHO cells (human) (UniProt P16473); experiment: cell-based or functional assay
[2] = target: TSHR with Glu107 mutated to Alanine expressed on CHO cells (human) (UniProt P16473); experiment: cell-based or functional assay
[3] = target: TSHR coated onto tubes (TSHR coated tubes) (human) (UniProt P16473); experiment: TSHR coated tubes
[4] = target: TSHR with Asp232 mutated to Alanine expressed on CHO cells (human) (UniProt P16473); experiment: cell-based or functional assay
[5] = target: wild type human TSHR (thyrotropin receptor) expressed on CHO cells (human) (UniProt P16473); experiment: cell-based or functional assay

B1: 5C9 IgG (human monoclonal autoantibody to the TSHR) (antibody, from another filing, V domains shown)
VH: EVQLVESGGGLIQPGGSLRLSCAASGFTVSSNYMSWVRQAPGKGLEWVSVTYSGGSTSYADSVKGRFTISRDNSKNTLYLQMNSLRAEDTAVYYCARGGRYCSSISCYARSGCDYWGQGTLVTVSS
VL: AIQMTQSPSSLSASVGDRVTITCRASQSISNYLNWYQQKPGKAPKLLIYAASSLQSGVPSRFSGSGSGTDFTLTISSLQPEDFATYYCQQSYSSPSTTFGQGTKLEIK
**Q.** Which Cyclic AMP concentration (basal) in the presence of 5C9 IgG (1 µg/mL) (fmol/cell well) [1] does the source give for B1 here?
**A.** 548

**Q.** And the Cyclic AMP produced; Experiment 1; 5C9 0.01 µg/mL + TSH (fmol/cell well) [2]?
**A.** 15000

**Q.** And the Cyclic AMP produced; Experiment 1; 5C9 0.1 µg/mL + TSH (fmol/cell well) [2]?
**A.** 5780

**Q.** What about the Cyclic AMP produced; Experiment 1; 5C9 1.0 µg/mL + TSH (fmol/cell well) [2] of the same binder?
**A.** 394

**Q.** What about the Cyclic AMP produced; Experiment 1; 5C9 10 µg/mL + TSH (fmol/cell well) [2] of the same binder?
**A.** 449

**Q.** What about the Cyclic AMP produced; Experiment 1; 5C9 100 µg/mL + TSH (fmol/cell well) [2] of the same binder?
**A.** 203

**Q.** What about the Cyclic AMP produced; Experiment 1; 5C9 100 µg/mL only (fmol/cell well) [2] of the same binder?
**A.** 462

**Q.** And the Cyclic AMP produced; Experiment 2; 5C9 0.01 µg/mL + TSH (fmol/cell well) [2]?
**A.** 21000

**Q.** What about the Cyclic AMP produced; Experiment 2; 5C9 0.1 µg/mL + TSH (fmol/cell well) [2] of the same binder?
**A.** 1540

**Q.** What about the Cyclic AMP produced; Experiment 2; 5C9 1.0 µg/mL + TSH (fmol/cell well) [2] of the same binder?
**A.** 28

**Q.** And the Cyclic AMP produced; Experiment 2; 5C9 10 µg/mL + TSH (fmol/cell well) [2]?
**A.** 321

**Q.** What about the Cyclic AMP produced; Experiment 2; 5C9 100 µg/mL + TSH (fmol/cell well) [2] of the same binder?
**A.** 64

**Q.** What about the Cyclic AMP produced; Experiment 2; 5C9 100 µg/mL only (fmol/cell well) [2] of the same binder?
**A.** 408

**Q.** And the Mutated/wild type (%); Experiment 1; 5C9 0.01 µg/mL + TSH [2]?
**A.** 88%

**Q.** What about the Mutated/wild type (%); Experiment 1; 5C9 0.1 µg/mL + TSH [2] of the same binder?
**A.** 97%

**Q.** What about the Mutated/wild type (%); Experiment 1; 5C9 1.0 µg/mL + TSH [2] of the same binder?
**A.** 37%

**Q.** And the Mutated/wild type (%); Experiment 1; 5C9 10 µg/mL + TSH [2]?
**A.** 91%

**Q.** What about the Mutated/wild type (%); Experiment 1; 5C9 100 µg/mL + TSH [2] of the same binder?
**A.** 105%

**Q.** And the Mutated/wild type (%); Experiment 1; 5C9 100 µg/mL only [2]?
**A.** 36%

**Q.** What about the Mutated/wild type (%); Experiment 2; 5C9 0.01 µg/mL + TSH [2] of the same binder?
**A.** 113%

**Q.** What about the Mutated/wild type (%); Experiment 2; 5C9 0.1 µg/mL + TSH [2] of the same binder?
**A.** 37%

**Q.** What about the Mutated/wild type (%); Experiment 2; 5C9 1.0 µg/mL + TSH [2] of the same binder?
**A.** 4%

**Q.** What about the Mutated/wild type (%); Experiment 2; 5C9 10 µg/mL + TSH [2] of the same binder?
**A.** 150%

**Q.** What about the Mutated/wild type (%); Experiment 2; 5C9 100 µg/mL + TSH [2] of the same binder?
**A.** 27%

**Q.** What about the Mutated/wild type (%); Experiment 2; 5C9 100 µg/mL only [2] of the same binder?
**A.** 193%

**Q.** What about the average % binding of labelled tracer [3] of the same binder?
**A.** 20%

**Q.** And the Cyclic AMP produced; 5C9 0.01 µg/mL + TSH (fmol/cell well) [4]?
**A.** 15300

**Q.** And the Cyclic AMP produced; 5C9 0.1 µg/mL + TSH (fmol/cell well) [4]?
**A.** 6560

**Q.** And the Cyclic AMP produced; 5C9 1.0 µg/mL + TSH (fmol/cell well) [4]?
**A.** 1880

**Q.** And the Cyclic AMP produced; 5C9 10 µg/mL + TSH (fmol/cell well) [4]?
**A.** 710

**Q.** And the Cyclic AMP produced; 5C9 100 µg/mL + TSH (fmol/cell well) [4]?
**A.** 55

**Q.** And the Cyclic AMP produced; 5C9 100 µg/mL only (fmol/cell well) [4]?
**A.** 99

**Q.** What about the Mutated/wild type (%); 5C9 0.01 µg/mL + TSH [4] of the same binder?
**A.** 87%

**Q.** What about the Mutated/wild type (%); 5C9 0.1 µg/mL + TSH [4] of the same binder?
**A.** 89%

**Q.** And the Mutated/wild type (%); 5C9 1.0 µg/mL + TSH [4]?
**A.** 176%

**Q.** And the Mutated/wild type (%); 5C9 10 µg/mL + TSH [4]?
**A.** 89%

**Q.** What about the Mutated/wild type (%); 5C9 100 µg/mL + TSH [4] of the same binder?
**A.** 33%

**Q.** What about the Mutated/wild type (%); 5C9 100 µg/mL only [4] of the same binder?
**A.** 19%

**Q.** What about the Cyclic AMP produced; 5C9 0.01 µg/mL + TSH (fmol/cell well) [5] of the same binder?
**A.** 17600

**Q.** What about the Cyclic AMP produced; 5C9 0.1 µg/mL + TSH (fmol/cell well) [5] of the same binder?
**A.** 7330

**Q.** And the Cyclic AMP produced; 5C9 1.0 µg/mL + TSH (fmol/cell well) [5]?
**A.** 1070

**Q.** And the Cyclic AMP produced; 5C9 10 µg/mL + TSH (fmol/cell well) [5]?
**A.** 794

**Q.** What about the Cyclic AMP produced; 5C9 100 µg/mL + TSH (fmol/cell well) [5] of the same binder?
**A.** 166

**Q.** And the Cyclic AMP produced; 5C9 100 µg/mL only (fmol/cell well) [5]?
**A.** 522
